Test results from US20220325261.

Tested on: beta-catenin

GST-PTPRS D1
tyrosine phosphorylation of immunopurified beta-catenin (Western blot): decreased tyrosine phosphorylation of immunopurified beta-catenin in the presence of GST-PTPRS D1 compared to GST alone
